Data as given in US20050260657A1.

Legend:
[1] = target: endogenous IP3R1 of HeLa cells (UniProt Q14643); experiment: cell-based or functional assay
[2] = target: IP3R1 (inositol 1,4,5-trisphosphate receptor type 1), untagged, expressed in cells (mouse) (UniProt P11881); experiment: cell-based or functional assay

Chain of endogenous IP3R1 of HeLa cells (Q14643 whole entry): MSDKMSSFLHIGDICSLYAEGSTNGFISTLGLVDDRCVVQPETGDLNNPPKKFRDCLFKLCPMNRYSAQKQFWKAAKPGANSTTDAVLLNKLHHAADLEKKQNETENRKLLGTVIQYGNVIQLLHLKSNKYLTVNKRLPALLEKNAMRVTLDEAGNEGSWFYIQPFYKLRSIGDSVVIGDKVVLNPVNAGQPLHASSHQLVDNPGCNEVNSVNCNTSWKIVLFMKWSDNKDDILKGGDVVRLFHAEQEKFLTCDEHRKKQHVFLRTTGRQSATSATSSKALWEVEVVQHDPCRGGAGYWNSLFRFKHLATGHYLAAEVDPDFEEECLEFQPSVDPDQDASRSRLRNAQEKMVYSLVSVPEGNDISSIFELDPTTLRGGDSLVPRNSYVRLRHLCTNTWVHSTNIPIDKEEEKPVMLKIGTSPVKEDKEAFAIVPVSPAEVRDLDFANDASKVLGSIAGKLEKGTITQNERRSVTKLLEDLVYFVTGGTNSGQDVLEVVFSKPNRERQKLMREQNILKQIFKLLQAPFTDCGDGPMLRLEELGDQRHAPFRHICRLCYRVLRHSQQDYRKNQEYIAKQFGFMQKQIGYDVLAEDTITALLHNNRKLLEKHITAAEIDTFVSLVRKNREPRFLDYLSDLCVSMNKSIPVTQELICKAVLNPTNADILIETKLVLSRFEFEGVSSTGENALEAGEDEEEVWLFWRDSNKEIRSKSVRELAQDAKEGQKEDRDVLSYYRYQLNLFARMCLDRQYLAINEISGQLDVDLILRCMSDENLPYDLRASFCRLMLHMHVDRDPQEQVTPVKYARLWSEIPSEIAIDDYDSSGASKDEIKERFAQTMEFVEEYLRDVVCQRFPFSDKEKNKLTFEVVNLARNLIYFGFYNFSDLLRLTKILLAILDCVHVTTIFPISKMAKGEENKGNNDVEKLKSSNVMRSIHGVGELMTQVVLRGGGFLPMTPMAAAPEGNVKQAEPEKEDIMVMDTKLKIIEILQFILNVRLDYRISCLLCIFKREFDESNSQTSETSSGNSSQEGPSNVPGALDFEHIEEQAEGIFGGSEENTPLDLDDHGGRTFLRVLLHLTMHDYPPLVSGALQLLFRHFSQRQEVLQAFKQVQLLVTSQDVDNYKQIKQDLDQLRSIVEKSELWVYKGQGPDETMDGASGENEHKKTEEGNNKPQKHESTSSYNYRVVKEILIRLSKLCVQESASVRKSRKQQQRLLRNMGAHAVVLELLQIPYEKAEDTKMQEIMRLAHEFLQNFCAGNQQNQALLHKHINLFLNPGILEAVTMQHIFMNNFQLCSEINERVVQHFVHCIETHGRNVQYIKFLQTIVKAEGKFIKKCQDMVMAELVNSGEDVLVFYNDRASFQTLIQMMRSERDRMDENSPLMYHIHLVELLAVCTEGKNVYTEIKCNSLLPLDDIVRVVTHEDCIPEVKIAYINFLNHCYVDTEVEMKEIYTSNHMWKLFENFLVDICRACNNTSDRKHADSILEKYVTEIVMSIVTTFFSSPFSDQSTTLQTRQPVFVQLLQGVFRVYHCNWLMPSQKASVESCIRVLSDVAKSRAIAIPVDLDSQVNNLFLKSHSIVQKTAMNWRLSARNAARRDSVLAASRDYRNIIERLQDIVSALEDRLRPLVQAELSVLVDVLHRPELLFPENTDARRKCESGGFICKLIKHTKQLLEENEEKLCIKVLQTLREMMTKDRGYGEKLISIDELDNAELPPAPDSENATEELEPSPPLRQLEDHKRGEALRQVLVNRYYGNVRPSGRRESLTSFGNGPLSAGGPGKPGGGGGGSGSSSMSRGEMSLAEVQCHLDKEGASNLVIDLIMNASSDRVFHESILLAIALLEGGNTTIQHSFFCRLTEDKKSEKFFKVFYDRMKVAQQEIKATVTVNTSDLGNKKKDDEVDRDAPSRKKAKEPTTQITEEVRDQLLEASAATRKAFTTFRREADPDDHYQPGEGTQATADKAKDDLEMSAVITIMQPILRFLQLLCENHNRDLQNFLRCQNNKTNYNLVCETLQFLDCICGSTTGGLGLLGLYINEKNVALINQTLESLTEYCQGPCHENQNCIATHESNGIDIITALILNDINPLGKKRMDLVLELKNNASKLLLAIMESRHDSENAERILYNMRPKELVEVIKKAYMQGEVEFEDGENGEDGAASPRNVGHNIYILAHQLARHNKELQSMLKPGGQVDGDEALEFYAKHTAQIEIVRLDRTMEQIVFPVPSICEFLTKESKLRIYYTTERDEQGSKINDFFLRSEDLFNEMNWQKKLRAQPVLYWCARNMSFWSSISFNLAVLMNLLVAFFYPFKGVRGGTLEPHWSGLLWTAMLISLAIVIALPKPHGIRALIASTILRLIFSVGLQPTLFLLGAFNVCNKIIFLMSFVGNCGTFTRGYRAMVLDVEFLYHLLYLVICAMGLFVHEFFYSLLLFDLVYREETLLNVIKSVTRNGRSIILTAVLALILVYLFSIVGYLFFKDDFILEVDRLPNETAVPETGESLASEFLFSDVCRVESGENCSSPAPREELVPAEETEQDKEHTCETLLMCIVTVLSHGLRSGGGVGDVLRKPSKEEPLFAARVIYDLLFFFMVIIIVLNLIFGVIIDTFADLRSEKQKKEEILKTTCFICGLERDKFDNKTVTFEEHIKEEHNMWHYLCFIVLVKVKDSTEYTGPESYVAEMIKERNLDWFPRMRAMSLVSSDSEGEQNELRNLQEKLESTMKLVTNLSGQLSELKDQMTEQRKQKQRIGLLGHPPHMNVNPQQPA

| Substance | Ca2+ response in siERp44-3U-pretreated HeLa cells compared with RFP-RDEL-transfected cells [1] [%] | peak amplitude of BCR-induced Ca2+ release in DT40-KMN60 cells, percent of non-transfected cells [2] [%] | peak amplitude of ATP-induced Ca2+ transient in HeLa cells, percent of non-transfected cells [1] [%] |
| --- | --- | --- | --- |
| RFP-ERp44-C58S (from UniProt Q9D1Q6 30-406) | 77.1 | – | – |
| RFP-ERp44 (red fluorescent protein-tagged ERp44) (from UniProt Q9D1Q6 30-406) | – | 60.6 | 69.3 |
